Assay results: PMC5705538 (Journal of molecular biology, 2017)
Several values for one entry are separate records, joined by “and”; a condition that tells them apart may be missing. Equal values may be shown once.

B1: NEMO UBAN (192–350) (domain or fragment, human, UniProt Q9Y6K9 192-350, looked up)
chain: QQQHSVQVDQLRMQGQSVEAALRMERQAASEEKRKLAQLQVAYHQLFQEYDNHIKSSVVGSERKRGMQLEDLKQQLQQAEEALVAKQEVIDKLKEEAEQHKIVMETVPVLKAQADIYKADFQAERQAREKLAEKKELLQEQLEQLQREYSKLKASCQES
B2: NEMO UBAN-ZF (246–419) (domain or fragment, human, UniProt Q9Y6K9 246-419, looked up)
chain: KSSVVGSERKRGMQLEDLKQQLQQAEEALVAKQEVIDKLKEEAEQHKIVMETVPVLKAQADIYKADFQAERQAREKLAEKKELLQEQLEQLQREYSKLKASCQESARIEDMRKRHVEVSQAPLPPAPAYLSSPLALPSQRRSPPEEPPDFCCPKCQYQAPDMDTLQIHVMECIE
B3: NEMO (150–350) (domain or fragment, human, UniProt Q9Y6K9 150-350, looked up)
chain: LGELQESQSRLEAATKECQALEGRARAASEQARQLESEREALQQQHSVQVDQLRMQGQSVEAALRMERQAASEEKRKLAQLQVAYHQLFQEYDNHIKSSVVGSERKRGMQLEDLKQQLQQAEEALVAKQEVIDKLKEEAEQHKIVMETVPVLKAQADIYKADFQAERQAREKLAEKKELLQEQLEQLQREYSKLKASCQES
B4: NEMO (112–350) (domain or fragment, human, UniProt Q9Y6K9 112-350, looked up)
chain: LDLKRQKEQALREVEHLKRCQQQMAEDKASVKAQVTSLLGELQESQSRLEAATKECQALEGRARAASEQARQLESEREALQQQHSVQVDQLRMQGQSVEAALRMERQAASEEKRKLAQLQVAYHQLFQEYDNHIKSSVVGSERKRGMQLEDLKQQLQQAEEALVAKQEVIDKLKEEAEQHKIVMETVPVLKAQADIYKADFQAERQAREKLAEKKELLQEQLEQLQREYSKLKASCQES

How the values were obtained:
[1] = molecular target: M1-linked di-ubiquitin (UniProt P0CG48 1-76; P0CG48 1-76); test: SEC
[2] = molecular target: the molecule itself; test: SEC-MALS

Binder	binding result [1]	stoichiometry N [2]
B1	binds	
B2	binds	
B3	binds	2 and 4
B4		2
